Assay results: patent US20220347267A1, “METHODS TO IMPROVE PATIENT RESPONSE TO IMMUNE CHECKPOINT INHIBITORS AND FUNCTIONAL TESTS TO PREDICT RESPONSE” (Biomarker Strategies, LLC, priority 2019, published 2022)

Experiments:
Type in all cases: cell-based, human
H1650 cells [1] = experiment: PD-L1 mRNA one step RT-qPCR, IFNγ treatment; conditions: 10 ng/mL IFNγ for 24h, 2^-ΔΔCt normalized by GAPDH
Method: (§1) Additionally, the presence, abundance and ratio of different PD-L1 mRNA forms can be used to predict response. As way of example, PD-L1 mRNA were measured using primers amplifying within exon 3-4 (extracellular region of the transcribed protein that interacts with PD1). Other amplicons detecting the same or other forms can be used readily. For example, amplicons corresponding to the transmembrane and cytoplasmic tail to confirm full length plasma membrane bound protein is transcribed, or regions overlapping with either PD1 or anti-PD-L1 binding sites. Five cell lines (H460, H1299, H1650, H2126 and SKMES1) were treated with vehicle or 10 ng/mL IFNγ for 24h. More complex sample types, including cells isolated from solid tumors from preclinical and clinical cancers be used. Other time points, including those as early as 1h for IRF or 4h for PD-L1, can be readily used. RNA was isolated from the cells using an NEB kit (Cat #T2010) per the manufacturer's instructions. Isolated RNA was estimated using a NanoDrop […] and checked for its quality by checking the 260/280 ratio. RNA concentration was brought to 40 ng/uL in all the samples to take equal quantity for further steps of RT and real time PCR. One step RT-qPCR was performed using a Power SYBR Green RNA to Ct One step kit (Cat #4931198) as per the manufacturer's instructions. A 200 ng RNA template was taken for total 20 uL reaction per well in 96 well PCR microplate for Roche 480 Light cycler. The following primer pairs (Sigma) were used for PD-L1 and GAPDH and were used at a concentration in the reaction mixture of 400 nM:
(§2) A Roche 480 Light cycler was used for performing the one step real time PCR. Data was analyzed using 2^-ΔΔCt method normalized by GAPDH for relative levels. Alternative housekeeper genes may be readily used.

SKMES1 cells [2] = experiment: PD-L1 mRNA one step RT-qPCR, IFNγ treatment; conditions: 10 ng/mL IFNγ for 24h, normalized by GAPDH
Method: as §1, §2

H2126 cells = experiment: PD-L1 mRNA one step RT-qPCR, IFNγ treatment; conditions: 10 ng/mL IFNγ for 24h, normalized by GAPDH
Method: as §1, §2

H1299 cells [3] = experiment: PD-L1 mRNA one step RT-qPCR, IFNγ treatment; conditions: 10 ng/mL IFNγ for 24h, 2^-ΔΔCt normalized by GAPDH
Method: as §1, §2

H1650 cells [4] = experiment: PD-L1 flow cytometry, IFNγ modulation
Method: (§3) Samples (150 uL per tube) were first incubated with a blocking reagent at 1:20 for 15 min at room temperature. Alexa 488-conjugated PD-L1 antibody (CST cat #25048, Lot #2) and Alexa 488-conjugated isotype antibody (CST cat #2975, Lot #16) were added to experimental samples and isotype control samples, respectively, at a manufacturer recommended dilution of 1:50 and the samples were incubated for 30 min at room temperature. Other fluorophore-conjugates and PD-L1 antibodies, including those targeting different epitopes, can be readily used. Additionally, antibodies detecting other biomarkers with appropriate processing (e.g. permeabilization of cells) to predict response (e.g. p-STAT-1) can be used. Following the incubation with an antibody, 1 mL of 2% FBS in PBS was added to each tube to dilute the antibody. Samples were then centrifuged at 200 rcf for 5 min. Supernatant was carefully aspirated and 200 uL of 10% neutral buffered formalin (NBF) was added. Samples were then fixed for 10 min at room temperature. NBF was diluted with 1 mL of 2% FBS in PBS and the samples were centrifuged at 200 rcf for 5 min. Supernatant was aspirated and the cells were resuspended in 0.5 mL of 2% FBS in PBS for flow cytometric analysis. In this experiment, 10% NBF was used to fix cells, but other fixatives, for example, 4% paraformaldehyde can be used.
(§4) Flow cytometry was performed using BDTM LSR II cytometer and BD FACSDiva™ data acquisition software. Any commercially available flow cytometry analysis software can be used, such as FlowJo (BD) and FCS Express (De Novo Software). Additionally, other flow cytometry instruments can be readily used. A total of 20,000 events were recorded for each sample. A Scatter gate was first applied, and a singlet gate was then applied on the scatter population to exclude doublet population. A 488 nm blue laser and a 530 nm detector were used to capture PD-LL signal. Any signal above the isotype control signal of the singlet population was considered PD-L1+(see FIG. 33). Though it was excluded from this experiment, cell viability can be assessed, and dead cells excluded from analysis, using stains such as Live/Dead™ Fixable Dead Cell Stain (Thermo) for fixed cells, or either 7-AAD (7-Aminoactinomycin D) or Propidium Iodide for unfixed cells.
(§5) A percent change in PD-L1+ events between Untreated (non-modulated; vehicle control) and Treated (modulated with IFNγ) samples was calculated for each of the four cell lines tested (Table 2). […] A percent change in PD-L1 signal between Untreated and Treated samples was calculated for each of the four cell lines tested. […] The mean PD-L1 signal was used to calculate the percent change, however, median (as shown in FIGS. 34A-34H), geometric mean, mode or any other averaging method can also be used. To assess the difference in PD-L1 expression level or number of PD-L1+ events between Treated and Untreated samples, either a percent change or fold change can be calculated. Differences in PD-L1 expression level can also be assessed between a control sample with a known PD-L1 level and a clinical sample with an unknown PD-L1 level. To do so, the assay result of modulated and unmodulated clinical samples should be normalized to that of a control sample. A percent change or fold change between modulated and unmodulated samples can then be calculated using the normalized values. Baseline PD-L1 levels, as well as changes to PD-L1 upon modulation, can be used to predict response to therapy. As mentioned in the Methods section above, the antibody against PD-L1 used in this experiment targets extracellular portion of the PD-L1 molecule and as such, permeabilization was not performed. Antibodies such as those that target other PD-L1 domains would yield different PD-L1 expression patterns depending on the form(s) of PD-L1 present in the cell lines tested. Flow cytometry cannot detect PD-L1 molecules that are already secreted and not bound to other cell surfaces proteins. […]

SKMES1 cells [5] = experiment: PD-L1 flow cytometry, IFNγ modulation
Method: as §3, §4, §5

H1299 cells [6] = experiment: PD-L1 flow cytometry, IFNγ modulation
Method: as §3, §4, §5

H460 cells = experiment: PD-L1 flow cytometry, IFNγ modulation
Method: as §3, §4, §5

[7] = modulated with IFNγ, 20,000 events recorded

B1: IFNγ: human IFNγ, modulator (10 ng/ml; Sigma Aldrich) (protein, UniProt P01579 24-161, looked up)
Interferon gamma: QDPYVKEAENLKKYFNAGHSDVADNGTLFLGILKNWKEESDRKIMQSQIVSFYFKLFKNFKDDQSIQKSVETIKEDMNVKFFNSNKKKRDDFEKLTNYSVTDLNVQRKAIHELIQVMAELSPAAKTGKRKRSQMLFRG
H1650 cells [1]
  relative increase of PD-L1 mRNA upon IFNγ exposure: 2.2 fold
SKMES1 cells [2]
  change of PD-L1 mRNA upon IFNγ exposure: no change
H2126 cells
  change of PD-L1 mRNA upon IFNγ exposure: decrease
H1299 cells [3]
  relative increase of PD-L1 mRNA upon IFNγ exposure: 1.7 fold
H1650 cells [4]; IFNγ treated vs untreated
  Mean PD-L1 signal in Singlets, % change (Treated - Untreated)/Untreated: 63%
  Mean PD-L1 signal in Singlets, Fold change (Treated/Untreated): 1.63
  Number of Events in PD-L1 + population, % change (Treated - Untreated)/Untreated: 266%
  Number of Events in PD-L1 + population, Fold change (Treated/Untreated): 3.66
H1650 cells [4]; modulated with IFNγ
  Mean PD-L1 signal in Singlets, Treated: 714
H1650 cells [4]; [7]
  Number of Events in PD-L1 + population, Treated: 5883
SKMES1 cells [5]; IFNγ treated vs untreated
  Mean PD-L1 signal in Singlets, % change (Treated - Untreated)/Untreated: 22%
  Mean PD-L1 signal in Singlets, Fold change (Treated/Untreated): 1.22
  Number of Events in PD-L1 + population, % change (Treated - Untreated)/Untreated: 3%
  Number of Events in PD-L1 + population, Fold change (Treated/Untreated): 1.03
SKMES1 cells [5]; modulated with IFNγ
  Mean PD-L1 signal in Singlets, Treated: 4228
SKMES1 cells [5]; [7]
  Number of Events in PD-L1 + population, Treated: 1772
H1299 cells [6]; IFNγ treated vs untreated
  Mean PD-L1 signal in Singlets, % change (Treated - Untreated)/Untreated: 24%
  Mean PD-L1 signal in Singlets, Fold change (Treated/Untreated): 1.24
  Number of Events in PD-L1 + population, % change (Treated - Untreated)/Untreated: 71%
  Number of Events in PD-L1 + population, Fold change (Treated/Untreated): 1.71
H1299 cells [6]; modulated with IFNγ
  Mean PD-L1 signal in Singlets, Treated: 538
H1299 cells [6]; [7]
  Number of Events in PD-L1 + population, Treated: 3462
H460 cells; IFNγ treated vs untreated
  Mean PD-L1 signal in Singlets, % change (Treated - Untreated)/Untreated: 20%
  Mean PD-L1 signal in Singlets, Fold change (Treated/Untreated): 1.20
  Number of Events in PD-L1 + population, % change (Treated - Untreated)/Untreated: 4%
  Number of Events in PD-L1 + population, Fold change (Treated/Untreated): 1.04
H460 cells; modulated with IFNγ
  Mean PD-L1 signal in Singlets, Treated: 1646
H460 cells; [7]
  Number of Events in PD-L1 + population, Treated: 13382
